Assay: soluble on expression in E. coli; label from the status in PepcDB or PDB records

Row | Sequence | soluble on expression in E. coli
1 | MEDQLTIFIISDSLGETAKAIAKACLSQFPGHDDWHFQRFSYINSQERLEQVFEEASQKTVFMMFSLVDVALASYAQKRCESEHYAYVDLLTNVIQGISRISGIDPLGEPGILRRLDNDYFKRVESIEFAVKYDDGRDPRGILQADLVIIGISRTSKTPLSMFLADKNIKVINIPLVPEVPVPKELRMIDSRRIIGLTNSVDHLNQVRKVRLKSLGLSSTANYASLERILEETRYAEEVMKNLGCPIINVSDKAIEETATIILEILKTNGQVAKNLLEHHHHHH | not soluble
2 | MEEDSIHLPTHLRLQPIYWSRDDVAQWLKWAENEFSLRPIESNKFEMNGKALLLLTKEDFRYRSPHSGDVLYELLQHILKQRKSRMLFSPFFPPGDSIHTKPEVLLHQNHDEDNCVQRTPRTPAESVHHNPPTIELLHRPRSPITTNHRPSPDPEQQRPQRSPLDNMSRRLSPVEKAQGPRLQQENNHQETYPLSVSPVENNHCLPSSPWQESTRVIQLMPSPIMHPLILNPRHSHSVDFKQSRHSEDGMNREGKPINLSHREDLAYLNHIMVSMSPPEEHAMPIGRIADCRLLWDYVYQLLSDSRYENFIRWEDKESKIFRIVDPNGLARLWGNHKNRTNMTYEKMSRALRHYYKLNIIRKEPGQRLLFRFMKTPDEIMSGRTDRLEHLESQVLDEQTYQEDEPTIASPVGWPRGNLPTGTAGGVMEAGELGVAVKEETRE | soluble
3 | MEEKPKYKRILLKLSGEAFAGEQGYGIDPAFLEYISHEIKNVYDLGVQVAIVIGGGNIFRGFQGKEIGVDRATADYMGMLATVINALALQSALENHVNIPTRVLSAIEMRQVAEPYIRRRAIRHLEKGRIVIFAGGTGNPFFSTDTAAALRAAEIGAEVLIKATKVGGIYDKDPEKYPDAVLIKEISYLEVINMGLKVMDHTALTLCKENEIPIIVLNVKEKGNLRRAVLGEEVGSVVRGLEHHHHHH | not soluble
4 | MEENMNIKQLKSKTMLGTVALVSAFSFASTNADANTYNYAVDVDYLASAEEIAQAHPASNTFPLGQCTWGVKEMATWAGNWWGNGGDWAASAASADYTVGTQPRVGSIVCWTDGSYGHVAYVTAVDPVTNKIQVLESNYAGHQWIDNYRGWFDPQNTVTPGVVSYIYPNLEHHHHHH | not soluble
5 | MEEPMEVDNKRPKVLTWTEKYRPKTLDDIAYQDEVVTMLKGALQGRDLPHLLFYGPPGTGKTSAALAFCRQLFPKNIFHDRVLDLNASDERGIAVVRQKIQSFSKSSLGHSHREDVLKLKIIILDEVDAMTREAQAAMRRVIEDFSKTTRFILICNYVSRLIPPVVSRCAKFRFKSLPAEIQVQRLRTICDAEGTPMSDDELKQVMEYSEGDLRRAVCTLQSLAPILKSGDDNARNCYLRGSSDSLLISNVCKSILTADVPQIIALTKDITKSCTGVAFIRRCFQQLMDEDVINDENIGVMGKLVATCEKRILDGCDLENNLLDFLLTLRETIQ | not soluble
6 | MEEPSELGASKEKPIELNEDDESSDGENSVIILDSDTEPEDGAGGEEDEDNGEDSEEEDEEDSDEEESEDDSDSSVDTESVNSVWSNVDEENGEEITTEAAEAKIIKKFEKAIFSIADNDSETGRRILEKLLNDAIIATYNQENPDFELLDEPPRLAKMLQVFIASHRNLAKLCEKEVENADEKEKEQLKSEEIQHLCQVLAYEPNSSDIWLDVALKSIEFGDLNFSKYAFKRCETLKESLESHATLLYLTCDYNESLMIMKQFQEQNDVLNDKLKYLKHKIRSTNQYYKLSCDRIFEEDEVYADVQSVEKRKIQDFDERIEALRSRVVGKIEQRDVDFRDEEEKCSVIPIRIEADQE | not soluble
7 | MEEQNANQMLTDILSFMKSGKRAAALEHHHHHH | soluble
8 | MEESKTPHVAIIPSPGMGHLIPLVEFAKRLVHLHGLTVTFVIAGEGPPSKAQRTVLDSLPSSISSVFLPPVDLTDLSSSTRIESRISLTVTRSNPELRKVFDSFVEGGRLPTALVVDLFGTDAFDVAVEFHVPPYIFYPTTANVLSFFLHLPKLDETVSCEFRELTEPLMLPGCVPVAGKDFLDPAQDRKDDAYKWLLHNTKRYKEAEGILVNTFFELEPNAIKALQEPGLDKPPVYPVGPLVNIGKQEAKQTEESECLKWLDNQPLGSVLYVSFGSGGTLTCEQLNELALGLADSEQRFLWVIRSPSGIANSSYFDSHSQTDPLTFLPPGFLERTKKRGFVIPFWAPQAQVLAHPSTGGFLTHCGWNSTLESVVSGIPLIAWPLYAEQKMNAVLLSEDIRAALRPRAGDDGLVRREEVARVVKGLMEGEEGKGVRNKMKELKEAACRVLKDDGTSTKALSLVALKWKAHKKELEQNGNH | soluble
9 | MEEVVRFECRDSNLEIYVVQPGERLSIFGSCSFLCLAGNASINDYNLPAVSCESSNFMKISAPQRMDVPAILQVFKSGPSYKHARLKFRLKEVAPKNYEKIMEMIGTTEPSVFIFSKILDFAEETVSGVVSNFLIHSSIQKQIILPPHFFISRDDFIIYPQQQEAQLKSQMNRLNKLRNDGQRTTILPIGHKGAGKSNLMRSLVNRCLSNGYEHVYVLDCDIGQSEFTPCGCLSLTKVTSPILGKPHGHQRASFENSFFYGDITVRDINLYMDIFERLFNKFKVISEPGSVCIINSMGWVTDEGAEILDGITRVTDPELFVEIFRDQTEARYQFLNRAEHNIVEIFANNSIGVIGLPPQKRLPAALIRELTIVGYFSSRLPRPSLASFPKVAPYKLRFENVTICVPVDLLVEDSHVFSSINTQIMALCINNTDLKPRKLYGKDDLPSICVIDGNSPALQCIGFGIIRGVSVEERIIFVVTPVDLLKLEEPPVLVRGMRIQTPTMFYTADPYNRCPYVLNDLEQGNSDNTLDGLYQPSVNTTQFKRSRRF | not soluble
10 | MEFFFFIDVYADRELVDYYIVTFKLDDLSSVELTGSQGKYYIRGIRDWEKFKEEAYDITLYELGDEVDRFKDIETALREAYRIAIGEAVRRGAKNIVPAIGFGNPPPEVVERVYPEELKFEKFPEDLDAFLDRIVKEVSLETTERSKDDDEIPF | soluble
11 | MEFKNPGFTGLFVIGRKYFMTAENTEMTLHPKKLPPNAGKGRVKGVPNKTTSLLKESVIEAAKRAGSKYGKEGLISYLEKQALKCPAAYLALLGKVLPLQVTGEDGGAIKMIGRVEIAPLGHDNTTD | not soluble
12 | MEFPFDVDALFPERITVLDQHLRPPARRPGTTTPARVDLQQQIMTIIDELGKASAKAQNLSAPITSASRMQSNRHVVYILKDSSARPAGKGAIIGFIKVGYKKLFVLDDREAHNEVEPLCILDFYIHESVQRHGHGRELFQYMLQKERVEPHQLAIDRPSQKLLKFLNKHYNLETTVPQVNNFVIFEGFFAHQHPPARKLPPKRAEGDIKPYSSSDREFLKVAVEPPWPLNRAPRRATPPAHPPPRSSSLGNSPERGPLRPFVPEQELLRSLRLCPPHPTARLLLAADPGGSPAQRRRTR | not soluble
13 | MEGGFGSDFGGSGSGKLDPGLIMEQVKVQIAVANAQELLQRMTDKCFRKCIGKPGGSLDNSEQKCIAMCMDRYMDAWNTVSRAYNSRLQRERANM | not soluble
14 | MEGQQVILHLPLSQKGPFWTWEPSAPRTLLQVLQDPALKDLVLTCPTLPWHSLILRPQYEIQAIMHMRRTIVKIPSTLEVDVEDVTASSRHVHFIKPLLLSEVLAWEGPFPLSMEILEVPEGRPIFLSPWVGSLQKGQRLCVYGLASPPWRVLASSKGRKVPRHFLVSGGYQGKLRRRPREFPTAYDLLGAFQPGRPLRVVATKDCEGEREENPEFTSLAVGDRLEVLGPGQAHGAQGSDVDVLVCQRLSDQAGEDEEEECKEEAETQSGSCCPSTSLAVSWRRLEHHHHHH | not soluble
15 | MEGTLSFVSGFAPAVYRRELFRHRCVTTAPEARAWPRLGLLRANSGARLSRVDITPEIYKRLVSMAKRTEGNFSAVAGAILESYLTAATNRDLRAVIFDMDGVLCDSERLSRAAGVEYFRRYHGVWPTEKDFADFAGTGEAAFLSGVARRYSVKDFDVNKAKEGFFNIYVNEYVSALEPFEGVREFIQQIKTMGLKTALASSADAIKVHANLSAIGFERDMFDFVTRSDEIANKKPAPDIFLAAAEGLGVPPESCVVIEDAPAGVLAAKRARMRCVAVATSVSAQLLWDAGADIVRPAPQYIMLDDIVITDDADASAPASASQE | soluble
16 | MEGVDPAVEEAAFVADDVSNIIKESIDAVLQNQQYSEAKVSQWTSSCLEHCIKRLTALNKPFKYVVTCIIMQKNGAGLHTAASCWWDSTTDGSRTVRWENKSMYCICTVFGLAI | soluble
17 | MEHLRRFDRVAGAVTQAMREGRIGFSLQQVNAVDDTGEVLYSECLGRLVERDGAVRTSEEFTAFLEASGRVASFDRYMVGLAFEWLDCNPSGVLGCDISAGNIFDENTWSELYDLLSRNREMASRLVLEITECLPLATLPTAAEFIEGARALGYRIALDSFGTGHSTPESLLSVPVDIVKLDAFFIGRGQGVGKGKGFLHHLVGLASCVAPTVIIEGIETYGQLEAVKKAGATHVQGFLLSEPTLYPVYCGQPAPLPAAKPRSAGSRQLHS | not soluble
18 | MEHSLPPYRLRRSPRAKYLRLLIRPDGIEVVVPTGLSDATVLAFVRQHGGWAQARLEELLARLAKLRQGQAERFPAEGGSVPLEGRETPLFIEETGGSRIRVSLEDQGLRLILPRTCGADRDRYVRDALFGWMKRRLPGRVTELIERHAPLHGLYPRQLRIKSMRTRWGSCGPANDINLNWLLGLAPLSVLEYVVVHELCHIRHRNHSRDFWELVAAHLPDWRQERQWLKAHGGGLIQRFDPAFRLEHHHHHH | soluble
19 | MEICADELKKVLNTVVNKHKDLKTHGFTLESCRSMIALMDTDGSGKLNLQEFHHLWNKIKAWQKIFKHYDTDQSGTINSYEMRNAVNDAGFHLNNQLYDIITMRYADKHMNIDFDSFICCFVRLEGMFRAFHAFDKDGDGIIKLNVLEWLQLTMYA | soluble
20 | MEIIGGKEVSPHSRPFMASIQYGGHHVCGGVLIDPQWVLTAAHCQYRFTKGQSPTVVLGAHSLSKNEASKQTLEIKKFIPFSRVTSDPQSNDIMLVKLQTAAKLNKHVKMLHIRSKTSLRSGTKCKVTGWGATDPDSLRPSDTLREVTVTVLSRKLCNSQSYYNGDPFITKDMVCAGDAKGQKDSCKGDAGGPLICKGVFHAIVSGGHECGVATKPGIYTLLTKKYQTWIKSNLVPPHTN | soluble
21 | MEIIKIDSHKDIEQQEDSVLVLGYFDGLHRGHKELFNQAREIAQKMQLKIVVLTFPESPQLAFTRFEPDLLNHINYPEKRYCKFAEYGVDCLYLTDFTSSFAKISSDDFIKNYIKALKAKAVVMGFDYKFSHSKANSDYLKHHFAGQVITVPEVQYEGKKISSTRVRQLIKQGDMTQVNRLLGYEFSTRGIVVHGDARGRTIGFPTANLAPLDRTYLPADGVYVADVIVGRKRYRSMTSIGKNITFGGTELRLEANIFDFDDDIYGETIEIFWLNKIREMVKFNSVNDLVEQLKSDKEIAINWGKS | not soluble
22 | MEILIATGRLAENTVRKAAGEKADVLVADIDIAAFITPKKLTRAFEEAGLSKKYDLILLPGLVPGDFSKVSDELDCKIRLGPKHAYDLGFVLRFAEEVEFSVKVPACELLADVRKEEALELIREAEEEAVSPLSLRGVKLGGNSRMKVMGEIVGAAELNPADLEIKIEAFIARGADIIDLGATLNTLPGQVRSTVFLAKSLTDIPISIDTLDPELIKEGIEAGADLVLSLNSTNMETAGSVVAKAGVAAVIIPDEGNSLESLVNNIESARRLGIERIIADPILDPVGHNITESIVRYHEFHRRYPDIPLFFGAGNVTELMDVDTIGVNATLCGIGAETGASILFTPEYSDKAQGSIGELKKASEMMQLCRIRESSPKDLGIDLLFIKEKRKRPDSPLPKKVITARASKNWRQDPAGPIRVRIVPDKINGNGGLIVAEHEKAAIAGESAREVMDTLIELELVSSLDHAAYLGRELEKAELALRFNRSYAQDDIF | not soluble
